# From publication PMC8858996 (iScience, 2022)
# B1: EphA2 L223R/L254R/V255R tagged at the C-terminus with mTURQ or EYFP (receptor)
# chain: AQGKEVVLLDFAAAGGELGWLTHPYGKGWDLMQNIMNDMPIYMYSVCNVMSGDQDNWLRTNWVYRGEAERIFIELKFTVRDCNSFPGGASSCKETFNLYYAESDLDYGTNFQKRLFTKIDTIAPDEITVSSDFEARHVKLNVEERSVGPLTRKGFYLAFQDIGACVALLSVRVYYKKCPELLQGLAHFPETIAGSDAPSRATVAGTCVDHAVVPPGGEEPRMHCAVDGEWRRPIGQCLCQAGYEKVEDACQACSPGFFKFEASESPCLECPEHTLPSPEGATSCECEEGFFRAPQDPASMPCTRPPSAPHYLTAVGMGAKVELRWTPPQDSGGREDIVYSVTCEQCWPESGECGPCEASVRYSEPPHGLTRTSVTVSDLEPHMNYTFTVEARNGVSGLVTSRSFRTASVSINQTEPPKVRLEGRSTTSLSVSWSIPPPQQSRVWKYEVTYRKKGDSNSYNVRRTEGFSVTLDDLAPDTTYLVQVQALTQEGQGAGSKVHEFQTLSPEGSGNLAVIGGVAVGVVLLLVLAGVGFFIHRRRKNQRARQSPEDVYFSKSEQLKPLKTYVDPHTYEDPNQAVLKFTTEIHPSCVTRQKVIGAGEFGEVYKGMLKTSSGKKEVPVAIKTLKAGYTEKQRVDFLGEAGIMGQFSHHNIIRLEGVISKYKPMMIITEYMENGALDKFLREKDGEFSVLQLVGMLRGIAAGMKYLANMNYVHRDLAARNILVNSNLVCKVSDFGLSRVLEDDPEATYTTSGGKIPIRWTAPEAISYRKFTSASDVWSFGIVMWEVMTYGERPYWELSNHEVMKAINDGFRLPTPMDCPSAIYQLMMQCWQQERARRPKFADIVSILDKLIRAPDSLKTLADFDPRVSIRLPSTSGSEGVPFRTVSEWLESIKMQQYTEHFMAAGYTAIEKVVQMTNDDIKRIGVRLPGHQKRIAYSLLGLKDQVNTVGIPI
# Columns and labels:
# CGA-WLA-YRPK dimer (5) = test: ITC
# dimer (4) = test: ITC
# CGA-WLA-YR dimer (N-ter) = test: ITC
# [1] = target: EphA2 WT tagged at the C-terminus with mTURQ or EYFP (UniProt P29317)
# FRET or BRET = target: the molecule itself; test: FRET or BRET
molecule,measurement,setting,value
human EphA2 LBD (residues 28–200) (from UniProt P29317 28-200) (domain or fragment),Kd,CGA-WLA-YRPK dimer (5),21 nM
same,Kd,dimer (4),104 nM
same,stoichiometry N (EphA2 LBD per peptide),dimer (4),2
human EphA2 ligand-binding domain (residues 28-200) (from UniProt P29317 28-200) (domain or fragment),stoichiometry N,CGA-WLA-YR dimer (N-ter),2
ephrinA1-Fc (ephrinA1 extracellular region fused to the dimeric Fc portion of an antibody) (Fc fusion),"EC50 of EphA2 autophosphorylation on Y588, endogenous EphA2 in PC3 cells, 15 min",[1],3.8 nM
B1,stoichiometry N,FRET or BRET,2
